Experimental data published in patent US20140056907A1 (Regeneron, published 2014).
Positions count from the first letter of the chain named. Numbers in names are those of the source.

B1: H2M7103N (antibody, V domains shown)
VH: EVQLVESGGGLVQPGGSLKLSCAASGFTFSSFWMSWVRQAPGKGLEWVANIKQNGSETYYVDSVKGRFTISRDNTKNSLYLQMNSLRAEDTAIYYCARGGRIQLWSSWFDPWGQGTLVTVSS
VL: DIQMTQSPSSLSASVGDRVTITCRASQSIKNYLNWYQQKSGKAPKLLIYAASSLQSGVPSRVSGSGSGTDFTLTISSLHPEDFAAYYCQQSFSAPLTFGGGTKVEIK
notes: Chimeric: human variable, mouse constant domains; Fc isotype not spelled out; also called H2bM7103N
B2: H3M6720N (antibody, V domains shown)
VH: B1 VH
VL: AIQMTQSPSSLSASVGDRVTITCRASQGISNDLGWYQQKPGKAPKLLIYGASSLQTGVPSRFSGSGSGTDFTLTISSLQPEDFATYYCLQDFNYPYTFGQGTKLEIK
notes: Chimeric: human variable, mouse constant domains; H3M prefix marks the Fc, isotype not spelled out
B3: H3M6721N (antibody, V domains shown)
VH: EVQLLASGGGLVQPGGSLRLSCAASGFTFSSFAMSWVRQAPGKGLEWVSGISGSGVSTYYADSVKGRFTISRDNSKNTLYLQMNSLRAEDTAAYYCAKEAYKWQPWGQGIRVTVSS
VL: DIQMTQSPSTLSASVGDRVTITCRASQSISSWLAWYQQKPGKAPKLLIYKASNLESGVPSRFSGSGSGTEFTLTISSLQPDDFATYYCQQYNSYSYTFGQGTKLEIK
notes: as for B2
B4: H4H6381P (antibody, human IgG4, V domains shown)
VH: QVQLVQSGAEVKKPGASVKVSCKASGYTFTSYGISWVRQAPGQGLEWMGWISAYNGNTNYAQKLQGRVTMTTDTSTSTAYMELRSLRSDDTAVYYCARDGSYSWFDPWGQGTLVTVSS
VL: not shown
B5: H4H6362P (antibody, V domains shown)
VH: QVQLVESGGGVVQPGRSLRLSCEASGFTFGSYGMHWVRQAPGKGLEWMAVISYDGNSRYSADSVKGRFTISRDNSKNTLYLQMNSLRAEDTALYYCAKENHIAARRPGGLDVWGQGTTVTVSS
VL: DIQMTQSPSSLSASVGDRVTITCRASQGISIYLAWYQQKPGKVPKLLIYAASSLQSGVPSRFSGSGSGTDFTLTISSLQPEDVATYFCQNYNIAPWTLGQGTKVEIK

How the values were obtained:
human ASIC1 [1] = molecular target: T1, human ASIC1 (human, UniProt P78348 1-528); assay: cell-based or functional assay
T1 sequence: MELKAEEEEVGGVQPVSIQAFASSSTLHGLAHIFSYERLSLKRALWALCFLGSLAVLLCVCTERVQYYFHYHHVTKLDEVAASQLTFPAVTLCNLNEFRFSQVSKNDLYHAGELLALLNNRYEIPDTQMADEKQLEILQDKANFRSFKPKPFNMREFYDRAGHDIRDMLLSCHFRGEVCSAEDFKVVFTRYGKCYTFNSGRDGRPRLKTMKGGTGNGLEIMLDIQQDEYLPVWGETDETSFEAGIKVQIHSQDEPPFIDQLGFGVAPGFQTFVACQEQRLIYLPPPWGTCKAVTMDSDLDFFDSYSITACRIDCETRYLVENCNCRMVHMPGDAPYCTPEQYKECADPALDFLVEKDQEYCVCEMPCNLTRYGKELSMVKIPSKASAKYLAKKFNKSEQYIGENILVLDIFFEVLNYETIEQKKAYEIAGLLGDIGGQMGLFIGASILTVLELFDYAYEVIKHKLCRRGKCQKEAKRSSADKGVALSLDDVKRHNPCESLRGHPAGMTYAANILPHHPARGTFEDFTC

human ASIC1 [2] = molecular target: T1, human ASIC1; assay: FACS titration, 3T3/hASIC1 cells
Protocol: To perform the FACS binding experiments, adherent cells were collected using 1 mM EDTA in PBS, then washed, and re-suspended in cold PBS containing 5% FBS. For each binding experiment, each anti-ASIC1 antibody ([…] or ND7 cells) was added to 250,000 cells in 500 μL of PBS with 5% FBS. After incubation for 20 minutes at room temperature, a secondary antibody which recognizes human Fc (Cat. No. 109-136-098, Jackson ImmunoResearch Laboratories, Inc., West Grove, Pa.) or mouse Fc (Cat. No. 550826, BD Biosciences, San Jose, Calif.) and is conjugated to allophycocyanin, was then added to the cell mixture at a final concentration of 13.3 nM. After incubating for 20 minutes on ice, the cells were washed and resuspended in PBS containing 5% FBS, then sorted and analyzed on a flow cytometer (FACSCalibur, BD Biosciences, San Jose, Calif.) to determine relative binding by the candidate antibodies to the tested cell lines. Histograms of cells stained with anti-ASIC1 antibodies were compared with those of cells stained with secondary antibody alone. Percentage of ASIC1 signal over secondary antibody alone was calculated using FlowJo software (Tree Star, Ashland, Oreg.).

rat ASIC1 = molecular target: T2, rat ASIC1 (rat, UniProt P55926 1-526); assay: FACS, undifferentiated ND7 cells
T2 construct: whole, on cells; ND7 is a fusion line of mouse neuroblastoma and rat dorsal root ganglia; also called rat ASIC1a
T2 sequence (looked up): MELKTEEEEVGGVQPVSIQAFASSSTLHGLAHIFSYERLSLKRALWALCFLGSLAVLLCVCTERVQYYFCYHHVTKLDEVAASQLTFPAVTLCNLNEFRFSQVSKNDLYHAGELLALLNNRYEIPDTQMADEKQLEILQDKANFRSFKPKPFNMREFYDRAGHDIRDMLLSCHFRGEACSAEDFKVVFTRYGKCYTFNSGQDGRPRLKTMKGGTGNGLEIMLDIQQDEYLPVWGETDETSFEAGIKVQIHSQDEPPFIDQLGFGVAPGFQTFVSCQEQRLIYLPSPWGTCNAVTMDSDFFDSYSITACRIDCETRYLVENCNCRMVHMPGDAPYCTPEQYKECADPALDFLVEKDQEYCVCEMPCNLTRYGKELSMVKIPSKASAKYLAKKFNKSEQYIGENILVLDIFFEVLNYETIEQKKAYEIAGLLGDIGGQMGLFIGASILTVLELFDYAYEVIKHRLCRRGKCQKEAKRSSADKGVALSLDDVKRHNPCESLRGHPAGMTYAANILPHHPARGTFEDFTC
Text: (§1) To further characterize anti-ASIC1 antibodies, their ability to bind either (a) a mouse fibroblast 3T3 cell line stably transfected to overexpress full length human ASIC1 (3T3/hASIC1; amino acids 1-528 of NCBI accession number NP_{—}001086.2 [SEQ ID NO:401]), (b) a 3T3 cell line stably transfected to over express full length mouse ASIC1a (3T3/mASIC1a; amino acids 1-526 of NCBI accession number NP_{—}033727), or (c) a ND7 cell line (ECACC, #92090903) that is a fusion cell line of mouse neuroblastoma and rat dorsal root ganglia that endogenously expresses rat ASIC1, was determined using flow cytometry (FACS). ND7 cells were differentiated by replacing the culture media with low-serum media (0.5% FBS) containing 1 mM dibutyryl-cAMP (Cat. No. sc-201567A, Santa Cruz Biotechnology, Inc., Santa Cruz, Calif.). FACS binding was tested for some antibodies on both undifferentiated ND7 cells and differentiated ND7 cells.
(§2) To perform the FACS binding experiments, adherent cells were collected using 1 mM EDTA in PBS, then washed, and re-suspended in cold PBS containing 5% FBS. For each binding experiment, each anti-ASIC1 antibody (at final concentrations of 10 nM of purified antibodies or 3.3 nM for antibody supernatants for binding to 3T3/hASIC1 cells and 5 nM for binding to 3T3/mASIC1a or ND7 cells) was added to 250,000 cells in 500 μL of PBS with 5% FBS. […] After incubating for 20 minutes on ice, the cells were washed and resuspended in PBS containing 5% FBS, then sorted and analyzed on a flow cytometer (FACSCalibur, BD Biosciences, San Jose, Calif.) to determine relative binding by the candidate antibodies to the tested cell lines. […] Percentage of ASIC1 signal over secondary antibody alone was calculated using FlowJo software (Tree Star, Ashland, Oreg.).

human ASIC1 [3] = molecular target: T1, human ASIC1; assay: cell-based or functional assay; remark: listed apart in the source
mouse ASIC1a [4] = molecular target: T3, mouse ASIC1a (mouse, UniProt Q6NXK8 1-526); assay: cell-based or functional assay
T3 sequence (looked up): T2 sequence (looked up) with S476N

mouse ASIC1a [5] = molecular target: T3, mouse ASIC1a; assay: FACS, 3T3/mASIC1a cells
Text: as §1
To perform the FACS binding experiments, adherent cells were collected using 1 mM EDTA in PBS, then washed, and re-suspended in cold PBS containing 5% FBS. For each binding experiment, each anti-ASIC1 antibody (at final concentrations of 10 nM of purified antibodies or 3.3 nM for antibody supernatants for binding to 3T3/hASIC1 cells and 5 nM for binding to 3T3/mASIC1a or ND7 cells) was added to 250,000 cells in 500 μL of PBS with 5% FBS. After incubation for 20 minutes at room temperature, a secondary antibody which recognizes human Fc (Cat. No. 109-136-098, Jackson ImmunoResearch Laboratories, Inc., West Grove, Pa.) or mouse Fc (Cat. No. 550826, BD Biosciences, San Jose, Calif.) and is conjugated to allophycocyanin, was then added to the cell mixture at a final concentration of 13.3 nM. After incubating for 20 minutes on ice, the cells were washed and resuspended in PBS containing 5% FBS, then sorted and analyzed on a flow cytometer (FACSCalibur, BD Biosciences, San Jose, Calif.) to determine relative binding by the candidate antibodies to the tested cell lines. Histograms of cells stained with anti-ASIC1 antibodies were compared with those of cells stained with secondary antibody alone. Percentage of ASIC1 signal over secondary antibody alone was calculated using FlowJo software (Tree Star, Ashland, Oreg.).

human ASIC1 [6] = molecular target: T1, human ASIC1; assay: cell-based or functional assay; remark: listed apart in the source
human ASIC1 [7] = molecular target: T1, human ASIC1; assay: FACS, 3T3/hASIC1 cells
Text: as §1, with “FACS binding was tested for some antibodies on both undifferentiated ND7 cells and differentiated ND7 cells.” left out
as §2, with “containing” for “containing 5% FBS. For each binding experiment, each anti-ASIC1 antibody (at final concentrations of 10 nM of purified antibodies or 3.3 nM for antibody supernatants for binding to 3T3/hASIC1 cells and 5 nM for binding to 3T3/mASIC1a or ND7 cells) was added to 250,000 cells in 500 μL of PBS with”

Row | Binder | Current inhibition (%) at 100 nM antibody, Q-Patch, pH 6.0 (human ASIC1 [1]) [%] | EC50 (human ASIC1 [2]) [nM] | binding result (rat ASIC1) | apparent IC50, human ASIC1 current, Q-Patch (human ASIC1 [3]) [nM] | apparent IC50, mouse ASIC1 current, Q-Patch (mouse ASIC1a [4]) [nM] | binding result (mouse ASIC1a [5]) | FLIPR Dose Curve, pH 5.0 % Block (human ASIC1 [6]) [%] | FLIPR Dose Curve, pH 5.5 % Block (human ASIC1 [6]) [%] | FLIPR Dose Curve, pH 5.5 IC50 (human ASIC1 [6]) [nM] | binding result (human ASIC1 [7])
1 | B1 | 92 | 1.7 | no binding (tested: 5 nM; gated lower than 1%) | ≤ 10 | < 25 | – | – | – | – | –
2 | B2 | 82 | 1.1 | no binding (tested: 5 nM; gated lower than 1%) | ≤ 10 | < 25 | no binding (tested: 5 nM; gated lower than 1%) | – | – | – | –
3 | B3 | 100 | 0.085 | no binding (tested: 5 nM; gated lower than 1%) | ≤ 10 | < 25 | – | 25 | 44 | 0.3 | –
4 | B4 | 25 | – | – | – | – | – | – | – | – | no binding
5 | B5 | 29 | – | – | – | – | – | – | – | – | no binding
